Experimental data from the nanobody polyreactivity screen of Harvey et al. (2022).

Assay: yeast display, Sf9 membrane polyspecificity reagent, FACS + sequencing; frameworks hold sequencing errors
Method in brief: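 Genes from sorted yeast were amplified by colony PCR, read by MiSeq 2 × 250 sequencing and filtered on CDR length. These cells carried a synthetic nanobody library in Saccharomyces cerevisiae BJ5465 and were sorted by FACS into low and high (top ~1%) gates on anti-HA and streptavidin fluorescence. Polyreactivity is labelled according to the gate of origin.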

| Sequence | polyreactivity (PSR sort gate) |
| --- | --- |
| QVQLVESGGGLVQAGGSLRLSCAASGSTFTWYAMGWYRQAPWKERELVADISYGGGSTYYADSVKGRFTISRDNAKNTVYLQMNSLKPEDTEVYYCAAASYLYLYLLEDYWGQGTQVTVSS | low polyreactivity |
| QVQLVESGGGIVQAGGRLRLSCAASGFTCARNVMGWYRQAPGKERELVAAITTSGGSTYYADSVKGRFTISRDNAKNTVSLQMNSLKPEDTAGYYCARRVYGYYIPYNYWGQGTQVTVSS | high polyreactivity |
| QVQLEESGGGLVQAGGSLRLSCAASGSIFGYYAMGWYRQAPGKERELVAAITTGGSTSYADSVKGRFTISRDNAKNTVYLQMNSLKPEDTAVYYCNARFKRLFGRADDYWGQGTQVTVSS | low polyreactivity |
| QVQLVESGGGLVQAGGSLRLSCAASGSIFIYNAMGWYRQAPGKERELVAAITWSGGRTYYADSVKGRFTISRDNAKNSVYLQMNSLKPEDTAVYYCNAVWTDAYYSYGYDYWGQGTQVTVSS | low polyreactivity |
| QVQLVESGGGLVQAGGSLRLSCAASGITFYKYAKGWYRQAPGKERELVAAISRSGTTTYYADSVKGRFTISRDNAKNTVYLQMNSLKPEDTAVYYCNTVNWLTLNDRYYYWGQGTQVTVSS | high polyreactivity |
| QVQLVESGGGLVQAGRSLRLSCAASGSTFWEYAMGWYRQAPGNEREFVAAISTSGGSTYYADSLKGRFTISRDTAKYTVYLQMNSLKPEDTAVYYCAAGRVRRRVWYNYWGQGTQVTVSS | high polyreactivity |
| QVQLVESGRGLVQAGGSLRLRCAASGSIFKSNVMGWYRPAPGKERELVAVITRSGGSTYYADSEKGRFTISRDNAKNTVYLQMNSLKPEDTAVYYCNRAAGYWAGYYHWGQGTQVTVSS | high polyreactivity |
| QVQLVESGGGLVQAGGSLRLSCPASGIIFYRYSMGWKRQAPGKERQFVAAISRGGGSTYYADSVKGRFTISRDNAKNTFYLQMNSLKPEDTAVYYCNARDTRVTVDQYSIKRMDYWGKGTQVTVSS | high polyreactivity |
| QVQLVESGGGLVQAGGSLRISCAASGSTFDDNAMGWYRQAPGKERELVASITYRGGSTYYADSVKGRFTISRDNAKNTVYLQMNSLKPEDTAVYYCAKGHYFKYDYWGQGTQVTVSS | low polyreactivity |
| QVQLVESGGGLVQAGGSLRLSCAASGRTFYFNTMGWYRQAPGKERELVATISWSGGRTYYADSVKGRFTISRDNAKNTVYLQMNSLKPEDTAVYYCAAVRYRGFDYWGQGTQVTVSS | high polyreactivity |
| QVQLVESGGGLVPAGGSLRLSCAASGRTFYYYAMGWYRQAPGKERELVAAIRRSGSSTYYADSVKGRFTISRDNAKNTVYLQMNSLKPEDTAVYYCAARPRRPRSNYWGQGTQVSVSS | high polyreactivity |
| QVQLVESGGGLVQAGGSLRLSCAASGGTFRRYAMGWYRQAPGKERELVAAISWTGGSTYYADSVKGRFTISRDNAKNTVYLQMNSLKPEDTAVYYCAAVGSSSSKGGYWGQGTQVTVSS | high polyreactivity |
| QVQLVESGGGLVQAGGSLRLSCAASGIIFPSYVMGWYRPAPGKERELVARISARGGRTYYADSVKGRFTISRDNAKNTVYLQMNSLKPEDTAVYYCAARWGITTWYDYWGQGTQVTVSS | high polyreactivity |
| QVQLVESGGGLVQAGGSLRLRCAASGFILYPYAMGWYRQAPGKERELVAAITSRGGRTYYADSVKGRFTISRDKAKHSVYFQMNSLKPEDTAVFYCAAKRTCNYAPLKYYSWGQGTQVTVSS | high polyreactivity |
| QVQLVESGGGLVQAGGSLRLSCAASGRIFYRNAMGWYRQAPGKERELVAAISGSGGSTYYADSVKGRFTISRDNAKNTVYLQMNSLKPEDTAVYYCNVDRSPTHIVGYGYWGQGTQVTVSS | low polyreactivity |
| QVQLVESGGGLVQAGGSLRLSCAASGSTSKWYAMGWYRQAPGKERELVAAITKTGGRTYYADSVKGRFTFSRDYAKNTVYLQMNSLKPEDTAVYYCAVEYLRGFIVIYDNWGQGTQVTVSS | high polyreactivity |
| QVQLVESGGGLVQAGGSLRISCAASGRTFAFYAMGRYRQAPGKERELVACISSSGDRTYYADSVKGRFTISRDNAKNTVYLQMNSLKPEDTAVYYCAARWRYTYYYWGQGTQVTVSS | high polyreactivity |
